Reference: patent publication US20250043019A1 (Janssen / Centocor, published 2025)

T1: human CD79b and CD20 co-expressed on the surface of B-lymphoma cell lines or primary B cells (human, UniProt P11836 1-297)
T1 sequence 1: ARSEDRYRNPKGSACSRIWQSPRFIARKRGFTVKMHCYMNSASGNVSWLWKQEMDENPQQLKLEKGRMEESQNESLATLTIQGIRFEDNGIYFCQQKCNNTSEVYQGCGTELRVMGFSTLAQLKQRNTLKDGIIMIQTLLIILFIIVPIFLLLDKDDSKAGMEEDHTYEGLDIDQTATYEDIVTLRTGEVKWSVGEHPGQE
T1 sequence 2: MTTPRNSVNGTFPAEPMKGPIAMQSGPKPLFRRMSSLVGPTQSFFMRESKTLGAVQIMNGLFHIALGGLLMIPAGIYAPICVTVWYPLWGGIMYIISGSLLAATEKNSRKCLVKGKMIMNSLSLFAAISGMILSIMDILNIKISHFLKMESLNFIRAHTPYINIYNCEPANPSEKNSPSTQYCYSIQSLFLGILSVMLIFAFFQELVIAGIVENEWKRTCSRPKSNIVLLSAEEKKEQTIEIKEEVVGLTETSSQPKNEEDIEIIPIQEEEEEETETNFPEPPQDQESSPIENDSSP

T2: human CD79b on the cell surface (human, UniProt P40259 29-229)
T2 sequence: T1 sequence 1

B1: C923B95 CD79bxCD20xCD3 trispecific antibody (other)
heavy: QVQLQESGPGLVKPSQTLSLTCTVSGVSISNYYWSWIRQPPGKGLEWIGRISPSGRTNYNPSLKSRVTMSLDASKNQFSLKLSSVTAADTAVYYCARGEYSGTYSYSFDIWGQGTMVTVSSASTKGPSVFPLAPSSKSTSGGTAALGCLVKDYFPEPVTVSWNSGALTSGVHTFPAVLQSSGLYSLSSVVTVPSSSLGTQTYICNVNHKPSNTKVDKKVEPKSCDKTHTCPPCPAPEAAGGPSVFLFPPKPKDTLMISRTPEVTCVVVSVSHEDPEVKFNWYVDGVEVHNAKTKPREEQYNSTYRVVSVLTVLHQDWLNGKEYKCKVSNKALPAPIEKTISKAKGQPREPQVYTLPPSREEMTKNQVSLSCAVKGFYPSDIAVEWESNGQPENNYKTTPPVLDSDGSFFLVSKLTVDKSRWQQGNVFSCSVMHEALHNRFTQKSLSLSPGK
light: DIQMTQSPSSLSASVGDRVTITCRSSQSLFDSDDGNTYLDWFQQKPGQSPKLLIQTLSYRASGVPSRFSGSGSGTDFTLTISSLQPEDFATYYCMQRMEFPLTFGGGTKVEIKRTVAAPSVFIFPPSDEQLKSGTASVVCLLNNFYPREAKVQWKVDNALQSGNSQESVTEQDSKDSTYSLSSTLTLSKADYEKHKVYACEVTHQGLSSPVTKSFNRGEC
chain: EIVLTQSPATLSASPGERVTLSCSASSSVSYMNWYQQKPGQAPRRWIYDSSKLASGVPARFSGSGSGRDYTLTISSLEPEDFAVYYCQQWSRNPPTFGGGTKVEIKGGSEGKSSGSGSESKSTGGSQVQLVQSGAEVKKPGSSVKVSCKASGYTFTRSTMHWVRQAPGQGLEWMGYINPSSAYTNYAQKFQGRVTLTADKSTSTAYMELSSLRSEDTAVYYCASPQVHYDYGGFPYWGQGTLVTVSSEPKSSDKTHTCPPCPAPEAAGGPSVFLFPPKPKDTLMISRTPEVTCVVVSVSHEDPEVKFNWYVDGVEVHNAKTKPREEQYNSTYRVVSVLTVLHQDWLNGKEYKCKVSNKALPAPIEKTISKAKGQPREPQVYTLPPSREEMTKNQVSLWCLVKGFYPSDIAVEWESNGQPENNYKTTPPVLDSDGSFFLYSKLTVDKSRWQQGNVFSCSVMHEALHNHYTQKSLSLSPGKGGSEGKSSGSGSESKSTGGSAIQLTQSPSSLSASVGDRVTITCRASSSVSYIHWFQQKPGKAPKPLIYATSNLASGVPSRFSGSGSGTDFTLTISSLQPEDFATYYCQQWTSNPPTFGQGTKLEIKGGSEGKSSGSGSESKSTGGSQVQLVQSGAEVKKPGSSVKVSCKASGYTFTSYNMHWVRQAPGQGLEWMGAIYPGNGDTSYAQKFQGRVTITADKSTSTAYMELSSLRSEDTAVYYCARSTYYGGDWYFNVWGQGTLVTVSS
B2: 79C3B645 CD79bxCD3 bispecific antibody (bispecific antibody, human IgG1, lambda, L234A L235A)
heavy: QVQLQQSGPGLVKPSQTLSLTCAISGDSVSSNSATWNWIRQSPSRGLEWLGRTYYRSKWYNDYTVSVKSRITINPDTSKNQFSLQLNSVTPEDTAVYYCTRVDIAFDYWGQGTLVTVSSASTKGPSVFPLAPSSKSTSGGTAALGCLVKDYFPEPVTVSWNSGALTSGVHTFPAVLQSSGLYSLSSVVTVPSSSLGTQTYICNVNHKPSNTKVDKKVEPKSCDKTHTCPPCPAPEAAGGPSVFLFPPKPKDTLMISRTPEVTCVVVSVSHEDPEVKFNWYVDGVEVHNAKTKPREEQYNSTYRVVSVLTVLHQDWLNGKEYKCKVSNKALPAPIEKTISKAKGQPREPQVYTLPPSREEMTKNQVSLSCAVKGFYPSDIAVEWESNGQPENNYKTTPPVLDSDGSFFLVSKLTVDKSRWQQGNVFSCSVMHEALHNRFTQKSLSLSPGK
light: QTVVTQPPSVSEAPRQRVTISCSGSSSNIGNHGVNWYQQLPGKAPKLLIYNDDLLPSGVSDRFSGSTSGTSGSLAISGLQSEDEADYYCAAWDDSLNGVVFGGGTKLTVLGQPKAAPSVTLFPPSSEELQANKATLVCLISDFYPGAVTVAWKADSSPVKAGVETTTPSKQSNNKYAASSYLSLTPEQWKSHRSYSCQVTHEGSTVEKTVAPTECS
chain: EIVLTQSPATLSASPGERVTLSCSASSSVSYMNWYQQKPGQAPRRWIYDSSKLASGVPARFSGSGSGRDYTLTISSLEPEDFAVYYCQQWSRNPPTFGGGTKVEIKGGSEGKSSGSGSESKSTGGSQVQLVQSGAEVKKPGSSVKVSCKASGYTFTRSTMHWVRQAPGQGLEWMGYINPSSAYTNYAQKFQGRVTLTADKSTSTAYMELSSLRSEDTAVYYCASPQVHYDYGGFPYWGQGTLVTVSSEPKSSDKTHTCPPCPAPEAAGGPSVFLFPPKPKDTLMISRTPEVTCVVVSVSHEDPEVKFNWYVDGVEVHNAKTKPREEQYNSTYRVVSVLTVLHQDWLNGKEYKCKVSNKALPAPIEKTISKAKGQPREPQVYTLPPSREEMTKNQVSLWCLVKGFYPSDIAVEWESNGQPENNYKTTPPVLDSDGSFFLYSKLTVDKSRWQQGNVFSCSVMHEALHNHYTQKSLSLSPGK
B3: 79C3B650 CD79bxCD3 bispecific antibody (bispecific antibody, human IgG1, kappa, L234A L235A)
heavy: B1 heavy
light: B1 light
chain: B2 chain
B4: C923B73 CD79bxCD20xCD3 trispecific antibody (other)
heavy: B2 heavy
light: B2 light
chain: B1 chain
B5: 79C3B605 CD79bxCD3 bispecific antibody (bispecific antibody, human IgG1, kappa, L234A L235A)
heavy: QVQLQESGPGLVKPSETLSLTCSVSGASISSFYWSWIRQPADEGLEWIGRISPSGKTNYIPSLKSRIIMSLDASKNQFSLRLNSVTAADTAMYYCARGEYSGTYSYSFDVWGQGTMVTVSSASTKGPSVFPLAPSSKSTSGGTAALGCLVKDYFPEPVTVSWNSGALTSGVHTFPAVLQSSGLYSLSSVVTVPSSSLGTQTYICNVNHKPSNTKVDKKVEPKSCDKTHTCPPCPAPEAAGGPSVFLFPPKPKDTLMISRTPEVTCVVVSVSHEDPEVKFNWYVDGVEVHNAKTKPREEQYNSTYRVVSVLTVLHQDWLNGKEYKCKVSNKALPAPIEKTISKAKGQPREPQVYTLPPSREEMTKNQVSLSCAVKGFYPSDIAVEWESNGQPENNYKTTPPVLDSDGSFFLVSKLTVDKSRWQQGNVFSCSVMHEALHNRFTQKSLSLSPGK
light: DIVMTQSPLSLSVTPGEPASISCRSSESLLDSEDGNTYLDWFLQKPGQSPQLLIYTLSYRASGVPDRFSGSGSDTDFTLHISSLEAEDVGLYYCMQRMEFPLTFGQGTKVEIKRTVAAPSVFIFPPSDEQLKSGTASVVCLLNNFYPREAKVQWKVDNALQSGNSQESVTEQDSKDSTYSLSSTLTLSKADYEKHKVYACEVTHQGLSSPVTKSFNRGEC
chain: B2 chain

Tests used:
Test in all cases: cell-based or functional assay
[1] = biological target: T1, human CD79b and CD20 co-expressed on …
[2] = biological target: T1, human CD79b and CD20 co-expressed on …; remark: listed apart in the source
[3] = biological target: T2, human CD79b on the cell surface
[4] = biological target: T2, human CD79b on the cell surface; remark: listed apart in the source

Binder	IC50, T-cell killing of OCI-Ly10 (Incucyte) [1] [µM]	IC50, T-cell killing of HBL-1 (Incucyte) [2] [µM]	IC50, T-cell killing of OCI-Ly10 (Incucyte) [3] [µM]	IC50, T-cell killing of HBL-1 (Incucyte) [4] [µM]
B1	0.0148	0.00489		
B2			0.018	0.00719
B3			0.007	0.0433
B4	0.132	0.0068		
B5			0.0543	0.0295
